First the molecules themselves.
B1: Storkhead-box protein 2, residues 64 to 141; numbered along this chain, Q9P2F5 (parent)
chain: SPISQSQFIPLGEILCLAISAMNSARKPVTQEALMEHLTTCFPGVPTPSQEILRHTLNTLVRERKIYPTPDGYFIVTP

± gives the uncertainty stated by the source.

The data set covers variants of B1. Briefly: abundance fitness (aPCA) (normalised: wild type 0, dead -1); higher = more abundant; growth selection in yeast, the domain comes from the species named. Particulars: Homo sapiens.
With SPISQSQFIPLGEILCLAISAMNSARKPVTQEALMEHLTTAFPGVPTPSQEILRHTLNTLVRERKIYPTPDGYFIVTP [C41A], the abundance fitness stood at 0.019 ± 0.051.

Regarding SPISQSQFIPLGEILCLAISAMNSARKPVTQEALMEHLTTNFPGVPTPSQEILRHTLNTLVRERKIYPTPDGYFIVTP [C41N], the abundance fitness was -0.024 ± 0.14.

As for SPISQSQFIPLGEILCLAISAMNSARKPVTQEALMEHDTTCFPGVPTPSQEILRHTLNTLVRERKIYPTPDGYFIVTP [L38D], the abundance fitness was -0.915 ± 0.26.

On to SPISQSQFIPLGEILCLAISAMQSARKPVTQEALMEHLTTCFPGVPTPSQEILRHTLNTLVRERKIYPTPDGYFIVTP [N23Q], for which the abundance fitness was -0.123 ± 0.063.

Turning to SPISQSQFIPLGEILCLAISAMNSARDPVTQEALMEHLTTCFPGVPTPSQEILRHTLNTLVRERKIYPTPDGYFIVTP [K27D], the abundance fitness was -0.235 ± 0.08.

Turning to SPISQSQFIPLGEILCLAISAMNSARKPVTQEALMEHLTTCFPGVPTPSQEILRHTLNTLVRERKIYPTPDGYFIHTP [V76H], the abundance fitness was -0.114 ± 0.092.

Take SPISQSQFIPLGEILCLAISAMNSARKPVTQEALMEHLTTCFPGVPTPSQEILRHTLNTLVRERKIYPTPDGYFIVNP [T77N]: the abundance fitness amounted to 0.059 ± 0.085.

With SPISQSQFIPLGEILCLAISAMNSARKPVTQEALMEHLTTCFPGVPTPSQEIWRHTLNTLVRERKIYPTPDGYFIVTP [L53W], the abundance fitness was -0.141 ± 0.024.

For the variant SPIAQSQFIPLGEILCLAISAMNSARKPVTQEALMEHLTTCFPGVPTPSQEILRHTLNTLVRERKIYPTPDGYFIVTP [S4A], the abundance fitness is -0.098 ± 0.039.

Consider SPIKQSQFIPLGEILCLAISAMNSARKPVTQEALMEHLTTCFPGVPTPSQEILRHTLNTLVRERKIYPTPDGYFIVTP [S4K], for which the abundance fitness was -0.154 ± 0.093.

SPIYQSQFIPLGEILCLAISAMNSARKPVTQEALMEHLTTCFPGVPTPSQEILRHTLNTLVRERKIYPTPDGYFIVTP [S4Y]: the abundance fitness is -0.076 ± 0.071.

In the case of SPISQFQFIPLGEILCLAISAMNSARKPVTQEALMEHLTTCFPGVPTPSQEILRHTLNTLVRERKIYPTPDGYFIVTP [S6F], the abundance fitness was -0.091 ± 0.079.

Consider SPWSQSQFIPLGEILCLAISAMNSARKPVTQEALMEHLTTCFPGVPTPSQEILRHTLNTLVRERKIYPTPDGYFIVTP [I3W], for which the abundance fitness was -0.44 ± 0.048.

On to SPGSQSQFIPLGEILCLAISAMNSARKPVTQEALMEHLTTCFPGVPTPSQEILRHTLNTLVRERKIYPTPDGYFIVTP [I3G], for which the abundance fitness was -0.046 ± 0.028.

For the variant SPISQSQFIPWGEILCLAISAMNSARKPVTQEALMEHLTTCFPGVPTPSQEILRHTLNTLVRERKIYPTPDGYFIVTP [L11W], the abundance fitness is -0.418 ± 0.076.

With SPISQSQFIPLGEILCLAISAMNSARKPVTQEALMEHLTTCFPGVPTPSQEILRHTLNTLVRERKIYPTPDGYFNVTP [I75N], the abundance fitness is -0.177 ± 0.15.

In the case of SPISQSQFIPLGEILCLAISAMNSARKPVTQEALMEHLTTCFPGVPTPSQEILRHTLNTLVRERKIYPTPDGYFGVTP [I75G], the abundance fitness was -0.033 ± 0.04.

As for SPISQSQFIPLGEILCLAISAMNSARKPVTQEALMEHLTTCFPGVPTPSQEILRHTLNTLVRERGIYPTPDGYFIVTP [K65G], the abundance fitness is -0.541 ± 0.037.

Regarding SPISQSQMIPLGEILCLAISAMNSARKPVTQEALMEHLTTCFPGVPTPSQEILRHTLNTLVRERKIYPTPDGYFIVTP [F8M], the abundance fitness is -0.102 ± 0.079.

Regarding SPISQSQFIPLGEILCLAISAMNSARKPVTQEALMEHLTTCFPGVPTPSQEILRHTLNTLVRERKIYCTPDGYFIVTP [P68C], the abundance fitness was 0.044 ± 0.043.

SPISQSQFIPLGEILCLAISAMNSARKPVTQEALMEHLTTCFPGVPTPSQEILMHTLNTLVRERKIYPTPDGYFIVTP [R54M]: the abundance fitness stood at 0 ± 0.081.

For SPISQSQFIPLGEILCLAISAMNSARKPVTQEALMEHLTTCFPGVPTPSQEILRHTLNTLVRERKIAPTPDGYFIVTP [Y67A], the abundance fitness worked out at 0.03 ± 0.048.

Turning to SPISQSQFIPLGEILCLAISAMNSARKPVTQEALMEHLTTCFPGVPTPSQEILRHTLNTLVRERKIHPTPDGYFIVTP [Y67H], the abundance fitness was -0.006 ± 0.1.

In the case of SPISQSQFIPLGEILCLAISAMNSARKPVTQEALMEHLTTCFPGVPTPSQEILRHTLNTLVRERKIGPTPDGYFIVTP [Y67G], the abundance fitness is -0.053 ± 0.036.

SPISQSQFIPLGEILCLAISAANSARKPVTQEALMEHLTTCFPGVPTPSQEILRHTLNTLVRERKIYPTPDGYFIVTP [M22A]: the abundance fitness was -0.234 ± 0.074.

Consider SPISQSQFIPLGEILCLAISYMNSARKPVTQEALMEHLTTCFPGVPTPSQEILRHTLNTLVRERKIYPTPDGYFIVTP [A21Y], for which the abundance fitness came out at 0.056 ± 0.097.

As for SPISQSQFIPLGEILCLAISAMNSGRKPVTQEALMEHLTTCFPGVPTPSQEILRHTLNTLVRERKIYPTPDGYFIVTP [A25G], the abundance fitness was -0.175 ± 0.044.

With SPISQSQFIPLGEILCLAISAMNSNRKPVTQEALMEHLTTCFPGVPTPSQEILRHTLNTLVRERKIYPTPDGYFIVTP [A25N], the abundance fitness was -0.068 ± 0.14.

Consider SPISQSQFIPLGEILCLAISAMNSARKPVTQEALMEHLTTCFPGVPTPSQEILRHTLNTLVRERKIYPTPDRYFIVTP [G72R], for which the abundance fitness was -0.32 ± 0.032.

In the case of EPISQSQFIPLGEILCLAISAMNSARKPVTQEALMEHLTTCFPGVPTPSQEILRHTLNTLVRERKIYPTPDGYFIVTP [S1E], the abundance fitness is -0.581 ± 0.24.

On to GPISQSQFIPLGEILCLAISAMNSARKPVTQEALMEHLTTCFPGVPTPSQEILRHTLNTLVRERKIYPTPDGYFIVTP [S1G], for which the abundance fitness is -0.263 ± 0.054.

For SPISQSQFIPLGEILCLAISAMNSARKPVTQEALMEHLTTCFPGVPTPSQEILRHTLNTLVRERKIYPTPDGYFIVTH [P78H], the abundance fitness is -0.191 ± 0.15.

For the variant SPISQSQFIPLGEILCLAISAMNSARKPVTQEALMEHLTTCFPGVPTPSQEILRHTLNTLVRERKTYPTPDGYFIVTP [I66T], the abundance fitness is -0.38 ± 0.055.

In the case of SPISQSQFIPLGEILCLAISAMNSARKPVTQEALMEHLTTCFPGVPTPSQHILRHTLNTLVRERKIYPTPDGYFIVTP [E51H], the abundance fitness was determined as 0.027 ± 0.18.

On to SPISQSQFIPLGEILCLAISAMNSARKPVTQEALMEHLTTCFPGVPTPSQPILRHTLNTLVRERKIYPTPDGYFIVTP [E51P], for which the abundance fitness was determined as 0.009 ± 0.052.

The record behind these values is the Human Domainome abundance scans (Beltran et al. 2025).
